Assays:
cHSP27 C137S (human) [1] = biological target: cHSP27 C137S (human) (UniProt P04792); assay: 15N CPMG relaxation dispersion NMR; cHSP27 (1 mM, reduced with 5 mM BME, 14.1 T only) or C137S (1 mM and 0.3 mM; 25, 30, 35 °C; 11.7 and 14.1 T) in NMR buffer pH 7; global two-state fit; dimer to monomers
cHSP27 C137S (human) [2] = biological target: cHSP27 C137S (human) (UniProt P04792); assay: NMR (1H-15N HSQC, G116 monomer and dimer peak intensities) against pH; [U-15N]-C137S at 250 μM in NMR buffer at pH 7, 25 °C, and separate samples at pH 6.5, 6.0 and 5.0, 1 bar; similar pH titrations on oxidised cHSP27; the rows are for pH 5 / low pH; dimer to monomers
cHSP27 C137S (human) [3] = biological target: cHSP27 C137S (human) (UniProt P04792); assay: high-pressure NMR (1H-15N HSQC); 200 μM [U-15N]-C137S in baroresistant buffer (100 mM Tris-HCl, 100 mM phosphate) pH 7, 25 °C, 14.1 T, 1 to 2500 bar; three-state model (dimer, monomer, unfolded); similar pressure titrations on oxidised cHSP27
cHSP27 C137S (human) [4] = biological target: cHSP27 C137S (human) (UniProt P04792); assay: NMR titration; intensities of the G116 monomer and dimer resonances against protein concentration, pH 7, 1 bar; dimer to monomers
[5] = biological target: cHSP27(H124K/C137S) (human) (UniProt P04792); assay: as above

| Substance | Kd (cHSP27 C137S (human) [1]) [µM] | population of the monomer at 1 mM (cHSP27 C137S (human) [1]) [%] | Kd (cHSP27 C137S (human) [2]) [µM] | fold increase of Kd at 1600 bar (against 1 bar) (cHSP27 C137S (human) [3]) [fold] | Kd (cHSP27 C137S (human) [4]) [µM] | Kd [5] [µM] |
| --- | --- | --- | --- | --- | --- | --- |
| cHSP27 C137S (from UniProt P04792 84-171) (domain or fragment) | 0.5 | 1.5 | 5000 | 10 | 0.7 |  |
| cHSP27(H124K/C137S) (from UniProt P04792 84-171) (domain or fragment) |  |  |  |  |  | 1100 |
